{
  "source": "paper PMC9923440",
  "binders": {"B1": {"name": "resistance to inhibitor of cholinesterase-3 (RIC3), Q7Z5B4 29-369 (natural protein)", "chain": "SRGKRQEPPPTPEGKLGRFPPMMHHHQAPSDGQTPGARFQRSHLAEAFAKAKGSGGGAGGGGSGRGLMGQIIPIYGFGIFLYILYILFKLSKGKTTAEDGKCYTAMPGNTHRKITSFELAQLQEKLKETEAAMEKLINRVGPNGESRAQTVTSDQEKRLLHQLREITRVMKEGKFIDRFSPEKEAEEAPYMEDWEGYPEETYPIYDLSDCIKRRQETILVDYPDPKELSAEEIAERMGMIEEEESDHLGWESLPTDPRAQEDNSVTSCDPKPETCSCCFHEDEDPAVLAENAGFSADSYPEQEETTKEEWSQDFKDEGLGISTDKAYTGSMLRKRNPQGLE"}},
  "biological_target": "SARS-CoV-2 spike protein ectodomain mutant S12AAA (L1145A-F1148A-L1152A) (SARS-CoV-2), P0DTC2",
  "experiment": "pull-down",
  "conditions": "remark: other sources report otherwise",
  "data": [
    {"binder": "B1", "values": [
      {"measurement": "decrease in RIC3 binding vs S12", "result": 67, "unit": "%"}
    ]}
  ]
}
